# In publication PMC11488100, “PET imaging of CXCR4 expression using [^18F]AlF-NOTA-QHY-04 for hematologic malignancy and solid tumors” (Theranostics, 2024):
# Bridge positions count the residues as written; N and C are the ends. Square brackets hold non-standard residues; d marks the D form. Peptide text beside a SMILES is read from it. * marks the point of attachment. NOTA = O=C(O)CN1CCN(CC(=O)O)CCN(CC(=O)*)CC1; 2Nal = N[C@@H](Cc1ccc2ccccc2c1)C(=O)O; Pen = CC(C)(S)[C@H](N)C(=O)O; 4Amb = NCc1ccc(C(=O)O)cc1; Ahx = NCCCCCC(=O)O
# Tests used:
# [1] = in vivo; cited from earlier work
# Excerpt: (Figure 3A and 3B). In contrast, the blood, heart, liver, ...
# [2] = design: species or system mice; details: mouse, in vivo
# Procedure: (§1) The xenografted mice were injected with [^18F]AlF-NOTA-QHY-04 (3.70 ± 0.74 MBq) in about 150 μL saline via the tail vein. All the PET scans were performed with micro-PET/CT (IRIS PET/CT, Inviscan, France) and the radioactivity were expressed as %ID/mL. Detailed procedures for dynamic, static imaging and blocking studies are provided in the supplemental materials. Biodistribution studies were conducted using mice with xenografted A549/CXCR4 tumors with and without blocking (n = 3). The mice were sacrificed immediately after static PET/CT 1 h post injection (p.i.), then the tumors and organs were quickly collected, weighed and counted for radioactivity by a γ-counter. The γ-counter activity readings were background- and decay-corrected and represented as the percentage of injected dose per gram of tissue (%ID/g).
# [3] = system: NCI-H69 subcutaneous tumor xenografts; design: species or system mice; details: mouse, in vivo
# Procedure: as §1
# 7.4, 150 mM NaCl, 0.005% tween-20) with continuous shaking at 1000 rpm. Biotinylated CXCR4 was immobilized on Super Streptavidin (SSA) biosensors by immersing the sensors in a protein solution of 35 µg/mL. […]
# and 1 μM NOTA-QHY-04 sample) was prepared and flowed. […] Prior to fitting, the data were baseline-subtracted and analyzed using a 1:1 binding model and the ForteBio data analysis software. Mean Kd value was determined by applying a global fit to all the data. […]
# NaOH. Finally, the cell lysates were collected and measured by an automatic gamma counter (2470 Wizard2, PerkinElmer). […]
smiles,measurement,setting,value
C[C@H](NC(=O)[C@H](CCCNC(=N)N)NC(=O)CCCCCNC(=O)c1ccc(CNC(=O)CN2CCN(CC(=O)O)CCN(CC(=O)O)CC2)cc1)C(=O)N[C@@H]1CSSC(C)(C)[C@@H](C(=O)O)NC(=O)[C@H](Cc2c[nH]cn2)NC(=O)[C@H](Cc2ccc3ccccc3c2)NC(=O)[C@H](CCCNC(=N)N)NC1=O [[^18F]AlF-NOTA-QHY-04] ({NOTA-4Amb-Ahx}-RA[dC]R[2Nal]H[Pen]-OH; disulfide 3-7),acute radiotoxicity,[1],no acute radiotoxicity
same,Tumor-to-organ ratio T/Blood,[2],3.63 ± 0.56
same,Tumor-to-organ ratio T/Heart,[2],7.77 ± 0.60
same,Tumor-to-organ ratio T/Kidney,[2],0.23 ± 0.05
same,Tumor-to-organ ratio T/Liver,[2],1.84 ± 0.17
same,Tumor-to-organ ratio T/Muscle,[2],10.94 ± 5.33
same,time of highest tumor uptake,[3],about 50 min
